Data reported in paper PMC10530080.

Target: recombinant human ATM, wild type (N-terminal FLAG-FKBP1A) (human) (UniProt Q13315)
Chain of UniProt Q13315 (Q13315 whole entry): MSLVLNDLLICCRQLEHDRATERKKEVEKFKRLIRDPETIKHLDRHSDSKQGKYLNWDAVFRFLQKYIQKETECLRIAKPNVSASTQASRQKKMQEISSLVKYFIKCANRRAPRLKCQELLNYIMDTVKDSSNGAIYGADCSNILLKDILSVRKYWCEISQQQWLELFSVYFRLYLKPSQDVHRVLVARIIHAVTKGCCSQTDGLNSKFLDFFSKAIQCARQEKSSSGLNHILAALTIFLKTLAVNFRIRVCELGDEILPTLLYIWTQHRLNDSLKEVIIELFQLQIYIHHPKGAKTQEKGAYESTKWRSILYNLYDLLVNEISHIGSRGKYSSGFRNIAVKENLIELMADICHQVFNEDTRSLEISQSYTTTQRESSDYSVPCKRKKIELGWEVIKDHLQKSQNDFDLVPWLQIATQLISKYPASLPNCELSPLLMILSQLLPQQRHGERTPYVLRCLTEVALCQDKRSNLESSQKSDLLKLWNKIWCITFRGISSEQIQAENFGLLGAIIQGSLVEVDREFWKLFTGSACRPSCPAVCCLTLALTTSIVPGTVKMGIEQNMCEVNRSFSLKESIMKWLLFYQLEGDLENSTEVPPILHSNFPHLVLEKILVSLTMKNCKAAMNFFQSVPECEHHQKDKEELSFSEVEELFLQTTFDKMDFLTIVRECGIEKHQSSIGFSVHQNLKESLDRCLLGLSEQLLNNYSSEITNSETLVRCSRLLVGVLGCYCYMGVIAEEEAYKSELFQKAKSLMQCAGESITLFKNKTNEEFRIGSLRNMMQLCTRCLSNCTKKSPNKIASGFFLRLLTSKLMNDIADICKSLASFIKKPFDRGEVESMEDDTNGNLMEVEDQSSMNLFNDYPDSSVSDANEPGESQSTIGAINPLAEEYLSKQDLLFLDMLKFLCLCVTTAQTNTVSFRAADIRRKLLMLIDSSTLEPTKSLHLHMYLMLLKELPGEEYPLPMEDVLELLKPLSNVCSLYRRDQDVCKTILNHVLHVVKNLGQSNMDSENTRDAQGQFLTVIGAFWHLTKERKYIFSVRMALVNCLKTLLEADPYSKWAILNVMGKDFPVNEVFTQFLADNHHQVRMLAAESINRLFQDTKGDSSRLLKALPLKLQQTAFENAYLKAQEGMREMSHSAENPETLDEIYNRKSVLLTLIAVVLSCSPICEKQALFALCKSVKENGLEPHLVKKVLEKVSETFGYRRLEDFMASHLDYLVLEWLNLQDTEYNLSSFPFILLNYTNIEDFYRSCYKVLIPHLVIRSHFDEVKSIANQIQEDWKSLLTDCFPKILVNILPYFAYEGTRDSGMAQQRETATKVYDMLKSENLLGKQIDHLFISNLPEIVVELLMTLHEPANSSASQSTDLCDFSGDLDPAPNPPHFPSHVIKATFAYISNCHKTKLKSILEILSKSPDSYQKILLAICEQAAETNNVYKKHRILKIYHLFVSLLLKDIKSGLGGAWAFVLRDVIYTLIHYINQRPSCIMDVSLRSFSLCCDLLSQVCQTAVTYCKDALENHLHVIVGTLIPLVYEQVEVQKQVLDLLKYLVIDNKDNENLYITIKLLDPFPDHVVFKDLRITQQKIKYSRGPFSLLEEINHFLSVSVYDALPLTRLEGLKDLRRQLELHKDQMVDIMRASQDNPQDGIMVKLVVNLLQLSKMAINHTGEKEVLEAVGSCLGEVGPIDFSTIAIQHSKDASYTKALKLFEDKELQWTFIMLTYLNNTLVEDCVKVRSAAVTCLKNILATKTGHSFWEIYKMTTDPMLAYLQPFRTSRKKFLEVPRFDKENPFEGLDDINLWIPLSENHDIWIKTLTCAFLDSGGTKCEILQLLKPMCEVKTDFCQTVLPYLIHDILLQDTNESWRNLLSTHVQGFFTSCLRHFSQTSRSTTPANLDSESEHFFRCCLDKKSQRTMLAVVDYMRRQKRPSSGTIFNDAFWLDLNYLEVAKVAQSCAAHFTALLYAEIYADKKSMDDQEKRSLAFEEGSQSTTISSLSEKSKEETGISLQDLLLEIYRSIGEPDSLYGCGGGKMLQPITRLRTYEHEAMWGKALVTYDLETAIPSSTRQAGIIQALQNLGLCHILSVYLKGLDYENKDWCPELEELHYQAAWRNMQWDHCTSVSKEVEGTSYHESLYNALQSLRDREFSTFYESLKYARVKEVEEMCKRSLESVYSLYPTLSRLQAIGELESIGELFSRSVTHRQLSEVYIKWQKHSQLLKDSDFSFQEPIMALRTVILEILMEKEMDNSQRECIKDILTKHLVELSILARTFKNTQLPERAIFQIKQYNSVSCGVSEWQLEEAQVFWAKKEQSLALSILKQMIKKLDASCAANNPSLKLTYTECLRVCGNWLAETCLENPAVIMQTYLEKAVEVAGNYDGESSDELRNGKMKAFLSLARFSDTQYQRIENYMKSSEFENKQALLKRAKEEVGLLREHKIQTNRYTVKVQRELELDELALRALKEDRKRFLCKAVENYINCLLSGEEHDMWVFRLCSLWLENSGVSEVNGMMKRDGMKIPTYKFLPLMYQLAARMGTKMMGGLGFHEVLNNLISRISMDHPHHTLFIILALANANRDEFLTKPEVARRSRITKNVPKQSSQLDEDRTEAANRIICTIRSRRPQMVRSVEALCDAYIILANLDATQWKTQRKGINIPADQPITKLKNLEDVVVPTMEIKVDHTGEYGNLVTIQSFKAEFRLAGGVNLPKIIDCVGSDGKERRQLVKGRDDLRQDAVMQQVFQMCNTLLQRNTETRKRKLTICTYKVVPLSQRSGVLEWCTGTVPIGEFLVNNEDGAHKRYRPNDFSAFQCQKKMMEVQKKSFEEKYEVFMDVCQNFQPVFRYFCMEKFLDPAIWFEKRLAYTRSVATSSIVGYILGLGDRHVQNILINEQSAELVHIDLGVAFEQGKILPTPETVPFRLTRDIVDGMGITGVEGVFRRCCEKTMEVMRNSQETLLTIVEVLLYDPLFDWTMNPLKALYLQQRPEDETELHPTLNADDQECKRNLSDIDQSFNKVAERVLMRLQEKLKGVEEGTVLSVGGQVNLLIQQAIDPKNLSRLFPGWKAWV

KM for p53 substrate, ATM activated by H2O2 (Phos-tag gel kinase assay, Michaelis-Menten): 29 µM
KM for p53 substrate, basal conditions (Phos-tag gel kinase assay, Michaelis-Menten): 80 µM
KM for p53 substrate, in the presence of MRN and 350-base pair dsDNA (Phos-tag gel kinase assay, Michaelis-Menten): 24 µM
Substance: His-MBP-TEV-p53(1-102) (from UniProt P04637 1-102) (domain or fragment)
